B1: mRNA-splicing (parent)
chain: AGUUGCUGCUGGGAGCUCCAGCACAGUGAAAUGGACAGAAGGGCAGAGCAA

Variants of: B1
Test: exon inclusion enrichment index; higher = more inclusion; WT1 exon 5 minigene, HEK293

Variant	exon inclusion enrichment index
G5A U7C G8A U10C G42C G43C	3.5
G5A U7C G8A U10C U27A G28U	0.834
G5A U7C G8A U10C U27A G28A	2.27
G5A U7C G8A U10C U27A G28C	2.42
G5C C6A U7A C9A U10A	0.906
G5A U7C G8A U10C G43A	4.17
G5A U7C G8A U10C G43C	2.52
G5A U7C G8A U10C G43U	1.89
G5A U7C G8A U10C G38C	1.83
G5A U7C G8A U10C G38A	1.25
G5A U7C G8A U10C G38U	0.919
G5A U7C G8A U10C U32C G33U	1.75
G5A U7C G8A U10C U32C G33C	3.24
G5A U7C G8A U10C U32C G33A	1.18
G5C C6A U7A G8A U10A	0.0993
G5A U7C G8A U10C U17A C18U	1.52
G5A U7C G8A U10C U17A C18A	1.29
G5A U7C G8A U10C U17A C18G	2
G5A U7C G8A U10C G41C G42A	2.13
G5A U7C G8A U10C G41C G42U	3.05
G5A U7C G8A U10C G41C G42C	3.27

Variant	exon inclusion enrichment index
G5C C6A U7C C9U U10A	0.0237
G5A U7C G8A U10C G33C G34C	1.34
G5A U7C G8A U10C G33C G34A	1.53
G5A U7C G8A U10C G33C G34U	1.72
G5A U7G U10C	0.936
G5C C6A G8U U10A	0.0451
G5A U7C G8A U10C G46A A47C	3.08
G5A U7C G8A U10C G46A A47U	2.29
G5A U7C G8A U10C G46A A47G	0.953
G5A U7C G8A U10C G33U	0.998
G5A U7C G8A U10C G33C	2.65
G5C C6A U7C G8A C9A U10C	1.81
G5C C6A U7C G8A C9A U10G	0.428
G5C C6A U7C G8A C9A U10A	0.239
G5A U7G G8C U10C	2.13
G5A U7C G8A U10C G38C A39G	2.15
G5A U7C G8A U10C G38C A39C	2.25
G5A U7C G8A U10C G38C A39U	0.229
G5A U7C G8A U10C G42U G43U	3.03
G5A U7C G8A U10C G42U G43C	1.5
G5A U7C G8A U10C G42U G43A	3.16

Variant	exon inclusion enrichment index
G5A U7C G8A U10C G42A G43A	4.61
G5A U7C G8A U10C G42A G43U	4.5
G5A U7C G8A U10C G42A G43C	4.19
G5C C6A G8A U10A	0.0612
G5A U7C G8U U10C	1.92
G5C	0.147
G5A U7C G8A U10C G34U	0.607
G5A U7C G8A U10C G34C	0.949
G5A U7C G8A U10C G34A	1.51
G5A U7C G8A U10C G43A C44A	3.99
G5A U7C G8A U10C G43A C44G	4.11
G5A U7C G8A U10C G43A C44U	2.57
G5C C6A G8U C9U	0.42
G5A U7C G8A U10C U17C C18U	1.85
G5A U7C G8A U10C U17C C18G	2.38
G5A U7C G8A U10C U17C C18A	1.54
G5A U7C G8C U10C	1.39
G5A U7C G8U C9U U10C	1.17
G5A U7C G8A U10C G42A	3.71
G5A U7C G8A U10C G42C	3.71
G5A U7C G8A U10C G42U	2.55

Variant	exon inclusion enrichment index
G5A U7C G8A U10C G33A G34A	0.398
G5A U7C G8A U10C G33A G34U	0.361
G5A U7C G8A U10C G33A G34C	0.421
G5A U7C G8A U10C U32A G33C	2.91
G5A U7C G8A U10C U32A G33U	1.68
G5A U7C G8A U10C U32A G33A	1.05
G5A U7C G8A U10C U27C	4.31
G5A U7C G8A U10C U27A	2.49
G5A U7C G8A U10C U27G	1.05
G5A U7C G8A U10C G46C A47C	1.81
G5A U7C G8A U10C G46C A47U	2.03
G5A U7C G8A U10C G46C A47G	2.57
G5A U7C G8A U10C G41C	3.34
G5A U7C G8A U10C G41U	2.09
G5A U7C G8A U10C G41A	1.44
G5A U7G G8U C9A	0.583
G5C C6A U7C G8A C9A	0.746
G5A U7C G8A U10C G41U G42U	1.9
G5A U7C G8A U10C G41U G42A	0.909
G5A U7C G8A U10C G41U G42C	2.97
G5A U7G C9A	1.5
